Source: patent US20190300590A1 (PROTAGONIST THERAPEUTICS, published 2019)
Bridges are numbered along the chain shown (N, C = ends). [ ]: non-standard residue; d: D form. 2Nal = N[C@@H](Cc1ccc2ccccc2c1)C(=O)O; AEF = NCCOc1ccc(C[C@H](N)C(=O)O)cc1; NMeR = CN[C@@H](CCCNC(=N)N)C(=O)O; Cit = NC(=O)NCCC[C@H](N)C(=O)O; αMeL = CC(C)C[C@](C)(N)C(=O)O; NMeK = CN[C@@H](CCCCN)C(=O)O; αMeK = C[C@](N)(CCCCN)C(=O)O; Ac5c = NC1(C(=O)O)CCCC1; Abu = CC[C@H](N)C(=O)O; Dap = NC[C@H](N)C(=O)O; Aib = CC(C)(N)C(=O)O; PEG1 = NCCOCCC(=O)O; AEA = NCCOCC(=O)O; βAla = NCCC(=O)O

T1: IL23R_huFC (human, UniProt Q5VWK5 24-353)
T1 sequence (looked up): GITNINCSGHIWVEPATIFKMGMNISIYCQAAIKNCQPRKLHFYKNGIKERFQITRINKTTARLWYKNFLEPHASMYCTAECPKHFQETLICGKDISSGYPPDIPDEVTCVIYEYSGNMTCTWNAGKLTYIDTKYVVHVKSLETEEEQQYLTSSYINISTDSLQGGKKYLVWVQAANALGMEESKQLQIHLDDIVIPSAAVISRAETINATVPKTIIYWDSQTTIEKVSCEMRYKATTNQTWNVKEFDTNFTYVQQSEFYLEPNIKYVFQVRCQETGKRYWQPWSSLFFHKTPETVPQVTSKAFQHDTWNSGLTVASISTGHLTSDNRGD

T2: IL-23R on human cells (IL-23R-expressing DB cells; human NK cells) (human, UniProt Q5VWK5 24-629)
T2 sequence (looked up): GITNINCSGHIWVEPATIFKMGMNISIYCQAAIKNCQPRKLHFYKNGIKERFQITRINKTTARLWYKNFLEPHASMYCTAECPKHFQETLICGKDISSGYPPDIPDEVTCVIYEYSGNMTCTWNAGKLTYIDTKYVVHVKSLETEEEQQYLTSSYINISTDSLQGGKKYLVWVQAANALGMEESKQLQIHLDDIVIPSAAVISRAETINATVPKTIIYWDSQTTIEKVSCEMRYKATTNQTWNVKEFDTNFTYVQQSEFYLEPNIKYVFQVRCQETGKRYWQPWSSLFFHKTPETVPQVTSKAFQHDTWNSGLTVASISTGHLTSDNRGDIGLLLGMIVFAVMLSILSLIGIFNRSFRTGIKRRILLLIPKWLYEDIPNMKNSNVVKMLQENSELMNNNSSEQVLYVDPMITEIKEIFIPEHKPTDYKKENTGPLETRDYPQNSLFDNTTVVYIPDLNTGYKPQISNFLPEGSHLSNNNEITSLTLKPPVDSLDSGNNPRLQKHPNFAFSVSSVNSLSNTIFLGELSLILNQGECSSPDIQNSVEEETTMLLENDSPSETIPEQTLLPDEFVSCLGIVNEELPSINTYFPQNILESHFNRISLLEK

B1: Ac-CADWECYWHTFG-NH2 (peptide)
peptide: Ac-CADWECYWHTFG-NH2
modifications: disulfide 1-6 (inferred)
B2: Ac-CADWVCYWHTKG-OH (peptide)
peptide: Ac-CADWVCYWHTKG-OH
modifications: disulfide 1-6 (inferred)
B3: Ac-CADWVCYWHTF-[(D)Lys]-OH (peptide)
peptide: Ac-CADWVCYWHTF[dK]-OH
modifications: disulfide 1-6 (inferred)
B4: Ac-CKDWVCYWHTFG-OH (peptide)
peptide: Ac-CKDWVCYWHTFG-OH
modifications: disulfide 1-6 (inferred)
B5: Ac-CADWVCYWHKFG-OH (peptide)
peptide: Ac-CADWVCYWHKFG-OH
modifications: disulfide 1-6 (inferred)
B6: Hy-CADWVCYAHTFG-NH2 (peptide)
peptide: H-CADWVCYAHTFG-NH2
modifications: disulfide 1-6 (inferred)
B7: Ac-CADWVCYWKTFG-OH (peptide)
peptide: Ac-CADWVCYWKTFG-OH
modifications: disulfide 1-6 (inferred)
B8: Ac-CATWVCYWHTFG-NH2 (peptide)
peptide: Ac-CATWVCYWHTFG-NH2
modifications: disulfide 1-6 (inferred)
B9: Ac-CADWKCYWHTFG-OH (peptide)
peptide: Ac-CADWKCYWHTFG-OH
modifications: disulfide 1-6 (inferred)
B10: Ac-CQTWQCYW-[(D)Arg]-ENG-[AEA]-[(D)-Lys]-NH2 (peptide)
peptide: Ac-CQTWQCYW[dR]ENG[AEA][dK]-NH2
modifications: disulfide 1-6 (inferred)
B11: Ac-CQTWQCYW-[N-MeArg]-ENG-[AEA]-[(D)-Lys]-NH2 (peptide)
peptide: Ac-CQTWQCYW[NMeR]ENG[AEA][dK]-NH2
modifications: disulfide 1-6 (inferred)
B12: Ac-CQTWQCYW-[N-MeArg]-ENG-[AEA]-[(D)-Lys]-NH2 (peptide)
peptide: Ac-CQTWQCYW[NMeR]ENG[AEA][dK]-NH2
modifications: disulfide 1-6 (inferred)
B13: Ac-CQTWQCYWR-[N-MeLys]-NG-[AEA]-[(D)-Lys]-NH2 (peptide)
peptide: Ac-CQTWQCYWR[NMeK]NG[AEA][dK]-NH2
modifications: disulfide 1-6
SMILES: CC(=O)N[C@H]1CSSC[C@@H](C(=O)N[C@@H](Cc2ccc(O)cc2)C(=O)N[C@@H](Cc2c[nH]c3ccccc23)C(=O)N[C@@H](CCCNC(=N)N)C(=O)N(C)[C@@H](CCCCN)C(=O)N[C@@H](CC(N)=O)C(=O)NCC(=O)NCCOCC(=O)N[C@H](CCCCN)C(N)=O)NC(=O)[C@H](CCC(N)=O)NC(=O)[C@H](Cc2c[nH]c3ccccc23)NC(=O)[C@H]([C@@H](C)O)NC(=O)[C@H](CCC(N)=O)NC1=O
B14: Ac-CRDWQCYWR-[(D)Lys]-FG-[AEP]-[(D)-Lys]-NH2 (peptide)
peptide: Ac-CRDWQCYWR[dK]FG[PEG1][dK]-NH2
modifications: disulfide 1-6
SMILES: CC(=O)N[C@H]1CSSC[C@@H](C(=O)N[C@@H](Cc2ccc(O)cc2)C(=O)N[C@@H](Cc2c[nH]c3ccccc23)C(=O)N[C@@H](CCCNC(=N)N)C(=O)N[C@H](CCCCN)C(=O)N[C@@H](Cc2ccccc2)C(=O)NCC(=O)NCCOCCC(=O)N[C@H](CCCCN)C(N)=O)NC(=O)[C@H](CCC(N)=O)NC(=O)[C@H](Cc2c[nH]c3ccccc23)NC(=O)[C@H](CC(=O)O)NC(=O)[C@H](CCCNC(=N)N)NC1=O
B15: Ac-CQTWQCYWR-[(D)Glu]-NG-[AEA[(D)-Lys]-NH2 (peptide)
peptide: Ac-CQTWQCYWR[dE]NG[AEA][dK]-NH2
modifications: disulfide 1-6
SMILES: CC(=O)N[C@H]1CSSC[C@@H](C(=O)N[C@@H](Cc2ccc(O)cc2)C(=O)N[C@@H](Cc2c[nH]c3ccccc23)C(=O)N[C@@H](CCCNC(=N)N)C(=O)N[C@H](CCC(=O)O)C(=O)N[C@@H](CC(N)=O)C(=O)NCC(=O)NCCOCC(=O)N[C@H](CCCCN)C(N)=O)NC(=O)[C@H](CCC(N)=O)NC(=O)[C@H](Cc2c[nH]c3ccccc23)NC(=O)[C@H]([C@@H](C)O)NC(=O)[C@H](CCC(N)=O)NC1=O
B16: Ac-CRDWQCYW-[(D)Arg]-[(D)Lys]-FG-[AEP]-[(D)-Lys]-NH2 (peptide)
peptide: Ac-CRDWQCYW[dR][dK]FG[PEG1][dK]-NH2
modifications: disulfide 1-6
SMILES: CC(=O)N[C@H]1CSSC[C@@H](C(=O)N[C@@H](Cc2ccc(O)cc2)C(=O)N[C@@H](Cc2c[nH]c3ccccc23)C(=O)N[C@H](CCCNC(=N)N)C(=O)N[C@H](CCCCN)C(=O)N[C@@H](Cc2ccccc2)C(=O)NCC(=O)NCCOCCC(=O)N[C@H](CCCCN)C(N)=O)NC(=O)[C@H](CCC(N)=O)NC(=O)[C@H](Cc2c[nH]c3ccccc23)NC(=O)[C@H](CC(=O)O)NC(=O)[C@H](CCCNC(=N)N)NC1=O
B17: Ac-CRDWQCYW-[N-MeArg]-KFG-[AEP]-[(D)-Lys]-NH2 (peptide)
peptide: Ac-CRDWQCYW[NMeR]KFG[PEG1][dK]-NH2
modifications: disulfide 1-6
SMILES: CC(=O)N[C@H]1CSSC[C@@H](C(=O)N[C@@H](Cc2ccc(O)cc2)C(=O)N[C@@H](Cc2c[nH]c3ccccc23)C(=O)N(C)[C@@H](CCCNC(=N)N)C(=O)N[C@@H](CCCCN)C(=O)N[C@@H](Cc2ccccc2)C(=O)NCC(=O)NCCOCCC(=O)N[C@H](CCCCN)C(N)=O)NC(=O)[C@H](CCC(N)=O)NC(=O)[C@H](Cc2c[nH]c3ccccc23)NC(=O)[C@H](CC(=O)O)NC(=O)[C@H](CCCNC(=N)N)NC1=O
B18: Ac-CRDWQCYW-[(D)Arg]-KFG-[AEP]-[(D)-Lys]-NH2 (peptide)
peptide: Ac-CRDWQCYW[dR]KFG[PEG1][dK]-NH2
modifications: disulfide 1-6
SMILES: CC(=O)N[C@H]1CSSC[C@@H](C(=O)N[C@@H](Cc2ccc(O)cc2)C(=O)N[C@@H](Cc2c[nH]c3ccccc23)C(=O)N[C@H](CCCNC(=N)N)C(=O)N[C@@H](CCCCN)C(=O)N[C@@H](Cc2ccccc2)C(=O)NCC(=O)NCCOCCC(=O)N[C@H](CCCCN)C(N)=O)NC(=O)[C@H](CCC(N)=O)NC(=O)[C@H](Cc2c[nH]c3ccccc23)NC(=O)[C@H](CC(=O)O)NC(=O)[C@H](CCCNC(=N)N)NC1=O
B19: Ac-CQTWQCYWR-[N-MeArg]-NG-[AEA]-[(D)-Lys]-NH2 (peptide)
peptide: Ac-CQTWQCYWR[NMeR]NG[AEA][dK]-NH2
modifications: disulfide 1-6
SMILES: CC(=O)N[C@H]1CSSC[C@@H](C(=O)N[C@@H](Cc2ccc(O)cc2)C(=O)N[C@@H](Cc2c[nH]c3ccccc23)C(=O)N[C@@H](CCCNC(=N)N)C(=O)N(C)[C@@H](CCCNC(=N)N)C(=O)N[C@@H](CC(N)=O)C(=O)NCC(=O)NCCOCC(=O)N[C@H](CCCCN)C(N)=O)NC(=O)[C@H](CCC(N)=O)NC(=O)[C@H](Cc2c[nH]c3ccccc23)NC(=O)[C@H]([C@@H](C)O)NC(=O)[C@H](CCC(N)=O)NC1=O
B20: Ac-CQTWQCYW-[(D)Arg]-[(D)Glu]-NG-[AEA]-[(D)Lys]-NH2 (peptide)
peptide: Ac-CQTWQCYW[dR][dE]NG[AEA][dK]-NH2
modifications: disulfide 1-6 (inferred)
B21: Ac-Cyclo-[[Abu]-QTWQC]-[Phe[4-(2-aminoethoxy)]]-[2-Nal]-[4-amino-4-carboxy-piperidine]-ENN-NH2 (peptide)
peptide: Ac-[Abu]QTWQC[AEF][2Nal][4‑amino‑4‑carboxy‑piperidine]ENN-NH2
modifications: thioether 1-6
B22: Ac-Cyclo-[[Abu]-QTWQC]-[Phe[4-(2-aminoethoxy)]]-[2-Nal]-[Acvc]-ENN-NH2 (peptide)
peptide: Ac-[Abu]QTWQC[AEF][2Nal][Ac5c]ENN-NH2
modifications: thioether 1-6
B23: Ac-Cyclo-[[Abu]-QTWQC]-[Phe[4-(2-aminoethoxy)]]-[2-Nal]-[Aib]-QN-[βAla]-NH2 (peptide)
peptide: Ac-[Abu]QTWQC[AEF][2Nal][Aib]QN[βAla]-NH2
modifications: thioether 1-6
B24: Ac-Cyclo-[[Abu]-QTWQC]-[Phe[4-(2-aminoethoxy)]]-[2-Nal]-[α-MeLeu]-[Lys(Ac)]-NG-NH2 (peptide)
peptide: Ac-[Abu]QTWQC[AEF][2Nal][αMeL]K(Ac)NG-NH2
modifications: thioether 1-6
B25: Ac-Cyclo-[[Abu]-QTWQC]-[Phe[4-(2-aminoethoxy)]]-[2-Nal]-[α-MeLeu]-QNG-NH2 (peptide)
peptide: Ac-[Abu]QTWQC[AEF][2Nal][αMeL]QNG-NH2
modifications: thioether 1-6
B26: Ac-Cyclo-[[Abu]-QTWQC]-[Phe[4-(2-aminoethoxy)]]-[2-Nal]-[Cit]-[Dap]-NG-NH2 (peptide)
peptide: Ac-[Abu]QTWQC[AEF][2Nal][Cit][Dap]NG-NH2
modifications: thioether 1-6
B27: Ac-Cyclo-[[Abu]-QTWQC]-[Phe[4-(2-aminoethoxy)]]-[2-Nal]-[α-MeLeu]-ENG-NH2 (peptide)
peptide: Ac-[Abu]QTWQC[AEF][2Nal][αMeL]ENG-NH2
modifications: thioether 1-6
B28: Ac-Cyclo-[[Abu]-QTWQC]-[Phe[4-(2-aminoethoxy)]]-[2-Nal]-[Aib]-E-[Dap(Ac)]-G-NH2 (peptide)
peptide: Ac-[Abu]QTWQC[AEF][2Nal][Aib]E[Dap](Ac)G-NH2
modifications: thioether 1-6
B29: Ac-Cyclo-[[Abu]-QTWQC]-[Phe[4-(2-aminoethoxy)]]-W-[α-MeLys]-[Lys(Ac)]-NG-NH2 (peptide)
peptide: Ac-[Abu]QTWQC[AEF]W[αMeK]K(Ac)NG-NH2
modifications: thioether 1-6

Target: T1, IL23R_huFC
Assay: IL23-IL23R competitive ELISA

IC50 [µM] | Binder
> 1 | B1
> 1 | B2
> 1 | B3
> 1 | B4
> 1 | B5
> 1 | B6
> 1 | B7
> 1 | B8
> 1 | B9
> 1 | B10
> 1 | B11
> 1 | B12
> 1 | B13
> 1 | B14
> 1 | B15
> 1 | B16
> 1 | B17
> 1 | B18
> 1 | B19
> 1 | B20

Target: T2, IL-23R on human cells …
Assay: cell-based or functional assay

pStat3 HTRF IC50 [nM] | Binder
< 10 | B21
< 10 | B22
< 10 | B23
< 10 | B24
< 10 | B25
< 10 | B26
< 10 | B27
< 10 | B28
< 10 | B29
